Here are results for two molecules from publication PMC5109273.

The target in one assay is TAP (Homo sapiens) (UniProt Q03518). Conditions: cited from earlier work.
The target in assay [1] is ICP47-TAP fusion complex with fused ICP47(∆1-11) (UniProt P03170). Kind of assay: co-IP; HEK293T co-transfected 1:1:5 (TAP1:TAP2:viral factor); solubilised in 2% digitonin; sequential precipitation via SBP tag (streptavidin agarose, biotin elution) and C8 tag (anti-C8 antibody on Dynabeads); co-precipitated mVenus-tagged viral factor quantified by SDS-PAGE and in-gel fluorescence relative to TAP lacking fused ICP47; on ice, pH 7.4.

UniProt Q03518, sequence (Q03518 whole entry, chain 1 of 2, the tested form may be a part): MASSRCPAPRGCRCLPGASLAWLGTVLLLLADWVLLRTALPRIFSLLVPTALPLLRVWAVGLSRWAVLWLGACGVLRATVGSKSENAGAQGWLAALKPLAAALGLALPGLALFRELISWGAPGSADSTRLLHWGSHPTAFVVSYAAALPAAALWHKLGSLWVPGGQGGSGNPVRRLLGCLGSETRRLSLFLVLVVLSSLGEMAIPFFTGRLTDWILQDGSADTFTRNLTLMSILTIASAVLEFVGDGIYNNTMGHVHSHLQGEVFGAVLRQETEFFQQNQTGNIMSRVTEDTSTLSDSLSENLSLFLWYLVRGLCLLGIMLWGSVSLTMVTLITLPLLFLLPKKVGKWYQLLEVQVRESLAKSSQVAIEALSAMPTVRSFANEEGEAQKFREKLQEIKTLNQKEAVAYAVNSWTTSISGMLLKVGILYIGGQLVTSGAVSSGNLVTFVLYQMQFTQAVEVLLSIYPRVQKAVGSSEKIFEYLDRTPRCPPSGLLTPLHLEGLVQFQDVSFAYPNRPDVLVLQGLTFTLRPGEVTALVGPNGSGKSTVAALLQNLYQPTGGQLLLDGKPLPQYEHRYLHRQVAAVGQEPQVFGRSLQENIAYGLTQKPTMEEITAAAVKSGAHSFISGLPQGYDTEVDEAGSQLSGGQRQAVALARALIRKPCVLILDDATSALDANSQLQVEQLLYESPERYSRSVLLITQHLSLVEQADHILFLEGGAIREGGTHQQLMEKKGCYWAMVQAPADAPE
UniProt Q03518, sequence (Q03519 whole entry, chain 2 of 2, further chain, the tested form may be a part): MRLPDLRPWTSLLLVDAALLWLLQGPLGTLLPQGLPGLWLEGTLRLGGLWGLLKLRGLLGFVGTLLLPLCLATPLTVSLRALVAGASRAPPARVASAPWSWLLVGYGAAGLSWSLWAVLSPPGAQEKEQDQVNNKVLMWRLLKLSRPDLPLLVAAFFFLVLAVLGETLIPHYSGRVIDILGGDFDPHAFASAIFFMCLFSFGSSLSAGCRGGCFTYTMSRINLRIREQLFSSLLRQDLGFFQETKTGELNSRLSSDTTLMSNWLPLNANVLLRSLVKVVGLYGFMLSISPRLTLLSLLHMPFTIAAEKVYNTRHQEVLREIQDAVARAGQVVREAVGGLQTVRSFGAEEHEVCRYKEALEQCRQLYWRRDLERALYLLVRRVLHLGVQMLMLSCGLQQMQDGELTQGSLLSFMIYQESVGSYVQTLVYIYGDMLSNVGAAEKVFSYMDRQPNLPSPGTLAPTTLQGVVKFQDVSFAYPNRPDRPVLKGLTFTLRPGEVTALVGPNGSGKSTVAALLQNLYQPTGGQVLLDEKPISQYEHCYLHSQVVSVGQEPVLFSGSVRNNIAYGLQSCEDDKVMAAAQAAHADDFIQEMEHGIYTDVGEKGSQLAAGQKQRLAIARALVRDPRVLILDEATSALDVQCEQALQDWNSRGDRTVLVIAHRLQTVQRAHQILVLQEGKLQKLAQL

ICP47 (from UniProt P03170): in the assay with TAP (Homo sapiens), the dissociation constant Kd (in general, the free concentration of one partner at which half of the binding sites on the other are occupied at equilibrium, for simple one-to-one binding) was 50 nM.

B1: non-fused full-length ICP47(1-88) with C-terminal mVenus-myc-His10 tag (natural protein)
chain: MSWALEMADTFLDTMRVGPRTYADVRDEINKRGREDREAARTAVHDPERPLLRSPGLLPEIAPNASLGVAHRRTGGTVTDSPRNPVTR
Turning to B1, the co-precipitated viral factor relative to the TAP complex lacking fused ICP47 in assay [1] turned out to be 100%.
